{"source": "patent US6867011B1", "about": "“Synthetic bioepitope compounds which can be used as standards in the biological assays of Troponin I” (Bio-Rad Pasteur, priority 1996, dated 2005)", "key": {"[1]": {"assay": "Tests of stability of compound 10 solutions stored at +4° C., assayed periodically with the troponin I kit", "assay_type": "physicochemical", "conditions": "buffer solutions stored at +4° C.", "method": "A compound according to the invention (compound 10) was diluted in water (C=2 mg/ml). From this “stock” solution, four “working” solutions S1, S2, S3 and S4 are obtained.\nTo carry out the various dilutions, a 0.1 M sodium succinate buffer solution (pH=6) containing Kathon (0.2%), Re gilait (0.05%) and 2 mM EDTA was used for solutions S1 (C=0.5 ng/ml) and S2 (C=1 ng/ml).\nSolutions S3 (C=0.5 ng/ml) and S4 (C=1 ng/ml) were obtained by diluting the “stock” solution with phosphate buffer (KH2PO4/K2HPO4 pH=7.5) containing Kathon (0.2%), Régilait (0.05%) and 2 mM EDTA.\nSolutions S1, S2, S3 and S4 were assayed, according to the protocol described in Example 2, on D0 (day of preparation of the solutions). The values obtained served as reference for monitoring stability.\nNext, solutions S1, S2, S3 and S4 were stored at +4° C. and assayed periodically. During each series of assays, three “control solutions” were used. They are the freeze-dried troponin I control sera distributed in the assay measuring range. […] During each stability test, it was checked that each of the controls tested was obtained at its target concentration. This therefore made it possible to compare the concentrations obtained for the peptides during the various tests. […]"}, "[2]": {"assay_type": "physicochemical", "method": "This stability study was validated with the aid of compound 6 stored at -20° C. and used as reference. It was checked beforehand that compound 6 is stable when stored at -20° C. for at least 18 months."}}, "data": [{"substance": "Ac-Asn Tyr Arg Ala Tyr Ala Thr Glu Pro His Ala Lys Lys Lys Ser Lys Gln Lys Met Gln Ala Met Met Gln Ala Leu Leu Gly Ala Arg Ala Lys Glu-NH2 (Ac-NYRAYATEPHAKKKSKQKMQAMMQALLGARAKE-NH2) [Compound 10, Ia with Ξ = Ac-NYRAYA-, Z = -AKKKSK-(QKMQ)1-AMMQA-, Ψ = -AKE-NH2]", "values": [{"measurement": "Stability of the solutions", "setting": "[1]", "result": "excellent stability"}]}, {"substance": "Ac-Gly Asn Tyr Arg Ala Tyr Ala Thr Glu Pro His Ala Lys Lys -NH-(CH2)5-CO-Ala Met Met Gln Ala Leu Leu Gly Ala Arg Ala Lys Glu-NH2 [Compound 6]", "values": [{"measurement": "Duration stable when stored at −20° C.", "setting": "[2]", "result": "at least 18 months"}]}]}
